Measured values reported in patent US20040191240.

Molecular target: recombinant full-length p21 (Santa Cruz)
Sequence (chain, as listed by the source): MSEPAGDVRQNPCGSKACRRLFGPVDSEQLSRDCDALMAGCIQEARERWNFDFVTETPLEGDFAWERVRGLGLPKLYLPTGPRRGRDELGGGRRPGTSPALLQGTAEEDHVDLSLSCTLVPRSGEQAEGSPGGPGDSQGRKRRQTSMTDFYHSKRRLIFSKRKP

B1: Rho kinase fragment (aa 1-543, Upstate Biotechnology) (protein)
chain: MSRPPPTGKMPGAPETAPGDGAGASRQRKLEALIRDPRSPINVESLLDGLNSLVLDLDFPALRKNKNIDNFLNRYEKIVKKIKGLQMKAEDYDVVKVIGRGAFGEVQLVRHKASQKVYAMKLLSKFEMIKRSDSAFFWEERDIMAFANSPWVVQLFYAFQDDRYLYMVMEYMPGGDLVNLMSNYDVPEKWAKFYTAEVVLALDAIHSMGLIHRDVKPDNMLLDKHGHLKLADFGTCMKMDETGMVHCDTAVGTPDYISPEVLKSQGGDGFYGRECDWWSVGVFLYEMLVGDTPFYADSLVGTYSKIMDHKNSLCFPEDAEISKHAKNLICAFLTDREVRLGRNGVEEIRQHPFFKNDQWHWDNIRETAAPVVPELSSDIDSSNFDDIEDDKGDVETFPIPKAFVGNQLPFIGFTYYRENLLLSDSPSCRENDSIQSRKNEESQEIQKKLYTLEEHLSNEMQAKEELEQKCKSVNTRLEKTAKELEEEITLRKSVESALRQLEREKALLQHKNAEYQRKADHEADKKRNLENDVNSLKDQLEDL
Question: Which “Rho-kinase activity toward S6 kinase substrate peptide ([gamma-32P]ATP, scintillation counting), in vitro” value does the source give for B1 here?
Answer: the estimated ICso value was 1.43 nM
